Source: patent US20100129344A1 (published 2010)

Tests used:
des(1-3)IGF-I = target: T1, des(1-3)IGF-I (human, UniProt P05019 52-118); assay: BIAcore, des(1-3)IGF-I amine-coupled on chip
T1 construct: domain: des(1-3)IGF-I (mature IGF-I without its first three residues)
Experimental: Recombinant pIGFBP-1 was analyzed across a des(1-3) IGF-I biosensor surfaces with a concentration range of 50, 100, 200, 400 nM, at a flow rate of 10 μl/min. The mean sensorgrams are shown for 400 nM IGFBP-1 (intact, n=3) and 200 nM IGFBP-1, intact (0 h, n=4) and after 2-h (n=5) and 4-h (n=3) incubations with partially purified azurocidin in a protease:substrate ratio of 1:3 500 for 2 h at 37 C.
Instrument and reagents (buffers, chemicals for activating and deactivated) were purchased from BIAcore (Uppsala, Sweden). IGF-I, IGF-II and des(1-3)IGF-I were immobilized on the sensor chip by amine coupling and deactivated with 0.1M ethanolamine. A reference flow cell was also prepared to correct for background and bulk refractive index contribution. After equilibration buffer to achieve a stable baseline, binding experiments was at 22 C in 2 separate experiments with the samples injected in random order. 40 μl of each sample was injected over the sensor surface at a rate of 10 μl/min (association period), followed by a 6 min wash with buffer (dissociation period). The sensor surface was regenerated with 20 μl of 100 mM HCl and washed for 6 min before the next sample. […]
The interaction of IGFBP-1 with des(1-3)IGF-I on the biosensor surface was also determined. […]

[1] = target: T2, Recombinant IGF-I (human) (human, UniProt P05019 49-118); assay: BIAcore, IGF-I on chip, 400 nM
T2 construct: also called IGF-1; full length IGF-I
Experimental: (§1) Instrument and reagents (buffers, chemicals for activating and deactivated) were purchased from BIAcore (Uppsala, Sweden). IGF-I, IGF-II and des(1-3)IGF-I were immobilized on the sensor chip by amine coupling and deactivated with 0.1M ethanolamine. A reference flow cell was also prepared to correct for background and bulk refractive index contribution. After equilibration buffer to achieve a stable baseline, binding experiments was at 22 C in 2 separate experiments with the samples injected in random order. 40 μl of each sample was injected over the sensor surface at a rate of 10 μl/min (association period), followed by a 6 min wash with buffer (dissociation period). The sensor surface was regenerated with 20 μl of 100 mM HCl and washed for 6 min before the next sample. We used a 1:1 Langmuir binding interaction model for kinetic analysis using the BIAcore software and GraphPad Prism (GraphPad Software Inc, San Diego, Calif.).
(§2) The interaction of proteolysed IGFBP-1 with IGF-I and IGF-II biosensor surfaces was analysed (BIAcore). In FIG. 12 the mean biosensorgrams for the interaction of 200 nM phosphorylated IGFBP-1 intact are shown, and after 2-h and 4-h incubations with partially purified azurocidin, with immobilized IGF-I (FIG. 12A) and IGF-II (FIG. 12B). […]

IGF-II (human) [2] = target: T3, IGF-II (human) (human, UniProt P01344 25-91); assay: BIAcore, IGF-II on chip, 200 nM (the reference itself)
T3 construct: also called radioiodinated IGF-II
Experimental: as §1, §2

IGF-II (human) [3] = target: T3, IGF-II (human); assay: cell-based or functional assay
IGF-II (human) [4] = target: T3, IGF-II (human); assay: BIAcore, IGF-II on chip against IGF-I on chip, 400 nM
Experimental: as §1
The interaction of proteolysed IGFBP-1 with IGF-I and IGF-II biosensor surfaces was analysed (BIAcore). […] The kinetic analyses of the rates of association (over 21-120 s, ks) and dissociation (over 261-360 s, kd) for the results shown in FIGS. 12A and 12B are summarized in Table 2. […] The rate of dissociation further increased to more than 7-fold at the 4-h time point. […]

IGF-II (human) [5] = target: T3, IGF-II (human); assay: BIAcore, IGF-II on chip, 400 nM
Experimental: The sensor surface was regenerated with 20 μl of 100 mM HCl and washed for 6 min before the next sample. We used a 1:1 Langmuir binding interaction model for kinetic analysis using the BIAcore software and GraphPad Prism (GraphPad Software Inc, San Diego, Calif.).
The interaction of proteolysed IGFBP-1 with IGF-I and IGF-II biosensor surfaces was analysed (BIAcore). […] The kinetic analyses of the rates of association (over 21-120 s, ks) and dissociation (over 261-360 s, kd) for the results shown in FIGS. 12A and 12B are summarized in Table 2. […] The rate of dissociation further increased to more than 7-fold at the 4-h time point. The rate of dissociation of IGFBP-1 from IGF-II was greater than twice that from IGF-I, and proteolysis had no effect on this relationship.
TABLE 2 Kinetic analysis of interactions of intact and proteolysed phosphorylated IGFBP-1 with IGF biosensor surfaces The kinetic data shown in […] were analysed using the 1:1 Langmuir interaction model. IGFBP-I was injected either intact, or after 2- or 4-proteolysis by azurocidin, over IGF-I and IGF-II biosensor surfaces.

[6] = target: T2, Recombinant IGF-I (human); assay: BIAcore, IGF-I on chip, 200 nM (the reference itself)
Experimental: as §1, §2

IGF-II (human) [7] = target: T3, IGF-II (human); assay: BIAcore, IGF-II on chip against IGF-I on chip, 200 nM
Experimental: as §1, §2

T3 sequence (P01344 25-91 limits assumed): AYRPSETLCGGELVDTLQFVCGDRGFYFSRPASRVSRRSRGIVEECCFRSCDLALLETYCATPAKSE
T2 sequence (P05019 49-118 limits assumed): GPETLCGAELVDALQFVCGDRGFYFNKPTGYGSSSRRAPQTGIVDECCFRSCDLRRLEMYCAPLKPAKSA
T1 sequence (P05019 52-118 limits assumed): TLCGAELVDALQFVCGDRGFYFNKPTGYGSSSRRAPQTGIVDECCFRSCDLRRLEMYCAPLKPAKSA

fold lower biosensor response than with full length IGF-I (des(1-3)IGF-I): 10 fold less
rel kd (relative to 200 nM intact pIGFBP-1) [1]: 1 ratio
rel ks (relative to 200 nM intact pIGFBP-1) [1]: 1.91 ratio
rel kd (relative to 200 nM intact pIGFBP-1) (IGF-II (human) [2]): 1 ratio
rel ks (relative to 200 nM intact pIGFBP-1) (IGF-II (human) [2]): 1 ratio
3H-thymidine incorporation in MCF-7 cells stimulated by IGF-II 10 ng/ml (2-fold without IGFBP-1) (IGF-II (human) [3]): 1.5 fold
kd rel to IGF-I (IGF-II (human) [4]): 2.33 ratio
ks rel to IGF-I (IGF-II (human) [4]): 1.01 ratio
rel kd (relative to 200 nM intact pIGFBP-1) (IGF-II (human) [5]): 0.97 ratio
rel ks (relative to 200 nM intact pIGFBP-1) (IGF-II (human) [5]): 1.86 ratio
rel kd (relative to 200 nM intact pIGFBP-1) [6]: 1 ratio
rel ks (relative to 200 nM intact pIGFBP-1) [6]: 1 ratio
kd rel to IGF-I (IGF-II (human) [7]): 2.41 ratio
ks rel to IGF-I (IGF-II (human) [7]): 1.02 ratio
B1: Recombinant phosphorylated IGFBP-1 (human), intact (other, UniProt P08833 26-259, looked up)
chain: APWQCAPCSAEKLALCPPVSASCSEVTRSAGCGCCPMCALPLGAACGVATARCARGLSCRALPGEQQPLHALTRGQGACVQESDASAPHAAEAGSPESPESTEITEEELLDNFHLMAPSEEDHSILWDAISTYDGSKALHVTNIKKWKEPCRIELYRVVESLAKAQETSGEEISKFYLPNCNKNGFYHSRQCETSMDGEAGLCWCVYPWNGKRIPGSPEIRGDPNCQIYFNVQN
modifications: phosphorylated; the sites were not determined here (the filing names Ser101, Ser119, Ser169 as sites for phosphorylation)
notes: mature; Analyte in the BIAcore runs and substrate in the protease assays; also called pIGFBP-1; recombinant pIGFBP-1
